According to the supplement of paper PMC10065799, “High-throughput profiling of sequence recognition by tyrosine kinases and SH2 domains using bacterial peptide display” (eLife, 2023):

Legend:
[1] = test system: Fer (mouse); assay: phosphorylation enrichment, bacterial display (enrichment ratio); higher = better substrate or ligand; peptides without Tyr show the background
[2] = target: EPHB1 (UniProt P54762); assay: as above
[3] = target: FGFR1 (UniProt P11362); assay: as above
[4] = target: FGFR3 (UniProt P22607); assay: as above
[5] = target: Hck (UniProt P08631); assay: as above
[6] = target: Fyn (UniProt P06241); assay: as above
[7] = test system: AncSZ; assay: as above
[8] = test system: c-Abl (mouse); assay: as above
[9] = target: MERTK (UniProt Q12866); assay: as above
[10] = test system: c-Src; assay: as above
[11] = target: Jak2 (UniProt O60674); assay: as above
[12] = target: Fes (UniProt P07332); assay: as above
[13] = target: EPHB2 (UniProt P29323); assay: as above
[14] = target: c-Src SH2; assay: SH2 binding enrichment of the phosphorylated peptide, bacterial display (enrichment ratio); higher = better substrate or ligand; peptides without Tyr show the background
[15] = target: Grb2 SH2 (UniProt P62993); assay: as above
[16] = target: SHP2-C SH2; assay: as above
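Throughout, for SH2 binding enrichment of the phosphorylated peptide, bacterial display: peptide library displayed on the E. coli surface as eCPX fusions, selected cells deep-sequenced, score is each peptide's frequency after selection divided by its frequency in the input.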
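Throughout, for phosphorylation enrichment, bacterial display: 11-residue human phosphosite peptides and single-mutation variants displayed on the E. coli surface, counted by deep sequencing, each peptide's frequency after selection divided by its frequency in the unselected input library; frequency after pTyr selection over input frequency; kinase dosed for 20-30% of maximal phosphorylation in three min.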

Chain of FGFR3 (P22607 whole entry, looked up): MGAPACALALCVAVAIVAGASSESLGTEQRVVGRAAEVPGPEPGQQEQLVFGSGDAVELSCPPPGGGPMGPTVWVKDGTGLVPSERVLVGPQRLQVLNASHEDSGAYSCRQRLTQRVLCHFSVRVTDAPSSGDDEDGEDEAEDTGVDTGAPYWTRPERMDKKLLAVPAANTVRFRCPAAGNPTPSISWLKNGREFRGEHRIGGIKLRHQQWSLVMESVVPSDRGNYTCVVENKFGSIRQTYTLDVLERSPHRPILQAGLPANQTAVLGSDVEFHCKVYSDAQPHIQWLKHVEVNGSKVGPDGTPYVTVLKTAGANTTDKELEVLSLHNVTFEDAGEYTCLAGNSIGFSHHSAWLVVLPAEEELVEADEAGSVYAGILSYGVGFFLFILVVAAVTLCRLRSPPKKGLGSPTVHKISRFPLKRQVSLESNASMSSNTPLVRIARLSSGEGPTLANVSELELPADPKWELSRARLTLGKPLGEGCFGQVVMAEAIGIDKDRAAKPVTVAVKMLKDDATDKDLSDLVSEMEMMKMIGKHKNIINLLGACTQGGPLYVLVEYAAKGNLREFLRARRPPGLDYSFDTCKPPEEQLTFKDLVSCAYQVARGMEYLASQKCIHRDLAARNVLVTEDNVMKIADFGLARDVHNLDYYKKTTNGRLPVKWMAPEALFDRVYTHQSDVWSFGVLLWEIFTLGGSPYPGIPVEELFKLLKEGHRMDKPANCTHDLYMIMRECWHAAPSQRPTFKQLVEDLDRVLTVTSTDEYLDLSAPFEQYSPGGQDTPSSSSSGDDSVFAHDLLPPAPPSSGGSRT
Chain of EPHB2 (P29323 whole entry, looked up): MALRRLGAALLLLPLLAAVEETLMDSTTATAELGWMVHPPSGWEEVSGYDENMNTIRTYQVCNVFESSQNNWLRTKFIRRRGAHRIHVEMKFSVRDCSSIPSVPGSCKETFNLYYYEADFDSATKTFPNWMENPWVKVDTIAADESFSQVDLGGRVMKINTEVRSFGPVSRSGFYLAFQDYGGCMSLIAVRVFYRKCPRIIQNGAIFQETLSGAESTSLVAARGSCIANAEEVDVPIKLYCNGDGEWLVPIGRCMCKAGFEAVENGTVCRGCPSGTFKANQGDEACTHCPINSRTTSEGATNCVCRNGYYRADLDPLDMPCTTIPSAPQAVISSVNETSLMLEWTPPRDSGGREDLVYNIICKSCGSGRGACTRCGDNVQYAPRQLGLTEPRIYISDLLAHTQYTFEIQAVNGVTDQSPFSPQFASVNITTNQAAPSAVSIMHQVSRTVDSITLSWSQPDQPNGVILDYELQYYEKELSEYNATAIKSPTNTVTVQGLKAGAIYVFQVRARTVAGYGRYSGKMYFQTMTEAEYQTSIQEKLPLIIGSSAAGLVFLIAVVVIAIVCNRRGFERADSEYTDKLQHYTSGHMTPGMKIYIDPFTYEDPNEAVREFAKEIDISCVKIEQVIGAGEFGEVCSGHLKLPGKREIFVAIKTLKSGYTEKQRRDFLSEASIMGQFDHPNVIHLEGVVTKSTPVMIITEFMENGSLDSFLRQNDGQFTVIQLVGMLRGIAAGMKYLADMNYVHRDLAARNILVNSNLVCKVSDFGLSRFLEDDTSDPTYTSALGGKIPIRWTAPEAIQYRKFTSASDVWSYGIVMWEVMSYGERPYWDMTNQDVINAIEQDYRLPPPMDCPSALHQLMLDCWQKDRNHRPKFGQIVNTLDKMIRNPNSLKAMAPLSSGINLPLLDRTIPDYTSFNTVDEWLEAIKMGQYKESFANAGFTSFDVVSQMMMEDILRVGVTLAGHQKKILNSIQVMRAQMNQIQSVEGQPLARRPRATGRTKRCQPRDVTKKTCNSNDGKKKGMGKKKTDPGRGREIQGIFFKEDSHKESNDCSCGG
Chain of FGFR1 (P11362 whole entry, looked up): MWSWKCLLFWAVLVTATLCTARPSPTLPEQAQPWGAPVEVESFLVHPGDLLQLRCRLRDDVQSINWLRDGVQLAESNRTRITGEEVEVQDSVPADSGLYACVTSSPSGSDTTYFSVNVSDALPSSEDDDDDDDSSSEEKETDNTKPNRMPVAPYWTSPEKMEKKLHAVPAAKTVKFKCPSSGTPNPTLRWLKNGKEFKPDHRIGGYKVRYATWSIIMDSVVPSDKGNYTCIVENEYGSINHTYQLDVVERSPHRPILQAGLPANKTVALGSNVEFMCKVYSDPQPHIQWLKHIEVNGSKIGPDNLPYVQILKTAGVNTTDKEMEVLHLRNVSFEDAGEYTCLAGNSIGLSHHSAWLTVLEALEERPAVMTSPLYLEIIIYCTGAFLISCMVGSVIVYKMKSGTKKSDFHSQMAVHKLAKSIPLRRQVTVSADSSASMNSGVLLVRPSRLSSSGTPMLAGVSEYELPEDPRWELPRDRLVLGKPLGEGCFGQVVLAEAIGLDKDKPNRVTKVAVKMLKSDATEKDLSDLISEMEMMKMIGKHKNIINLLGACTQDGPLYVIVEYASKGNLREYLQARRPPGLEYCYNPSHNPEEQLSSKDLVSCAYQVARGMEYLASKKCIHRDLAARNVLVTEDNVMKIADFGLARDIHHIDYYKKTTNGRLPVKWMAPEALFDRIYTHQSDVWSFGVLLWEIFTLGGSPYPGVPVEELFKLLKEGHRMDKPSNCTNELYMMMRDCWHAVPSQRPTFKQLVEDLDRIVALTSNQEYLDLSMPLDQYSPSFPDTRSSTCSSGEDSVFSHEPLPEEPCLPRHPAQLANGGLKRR
Chain of EPHB1 (P54762 whole entry, looked up): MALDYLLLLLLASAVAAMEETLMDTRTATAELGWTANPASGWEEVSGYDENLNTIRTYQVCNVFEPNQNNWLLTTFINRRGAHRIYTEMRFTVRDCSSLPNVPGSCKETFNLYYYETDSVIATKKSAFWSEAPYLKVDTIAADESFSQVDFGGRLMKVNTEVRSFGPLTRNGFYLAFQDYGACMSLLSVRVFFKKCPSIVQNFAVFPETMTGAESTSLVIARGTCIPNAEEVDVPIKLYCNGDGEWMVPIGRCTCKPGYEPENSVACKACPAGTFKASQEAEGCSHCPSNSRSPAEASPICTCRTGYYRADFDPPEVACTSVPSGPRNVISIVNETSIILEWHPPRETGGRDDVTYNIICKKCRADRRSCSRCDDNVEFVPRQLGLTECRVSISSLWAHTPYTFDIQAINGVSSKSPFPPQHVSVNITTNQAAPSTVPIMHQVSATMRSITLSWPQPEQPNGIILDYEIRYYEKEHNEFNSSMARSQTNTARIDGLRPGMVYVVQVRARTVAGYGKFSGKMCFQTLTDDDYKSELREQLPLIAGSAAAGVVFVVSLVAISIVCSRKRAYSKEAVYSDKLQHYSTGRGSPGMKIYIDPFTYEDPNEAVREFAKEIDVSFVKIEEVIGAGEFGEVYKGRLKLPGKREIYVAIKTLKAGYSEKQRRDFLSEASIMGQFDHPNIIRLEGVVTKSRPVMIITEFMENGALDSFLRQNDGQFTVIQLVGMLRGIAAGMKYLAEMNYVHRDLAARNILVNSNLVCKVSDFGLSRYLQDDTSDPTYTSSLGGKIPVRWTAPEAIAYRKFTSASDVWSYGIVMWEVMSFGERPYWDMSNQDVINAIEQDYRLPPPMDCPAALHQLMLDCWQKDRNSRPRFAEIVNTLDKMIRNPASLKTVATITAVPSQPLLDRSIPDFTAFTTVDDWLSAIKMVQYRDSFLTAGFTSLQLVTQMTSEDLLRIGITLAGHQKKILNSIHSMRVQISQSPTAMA
Chain of Fes (P07332 whole entry, looked up): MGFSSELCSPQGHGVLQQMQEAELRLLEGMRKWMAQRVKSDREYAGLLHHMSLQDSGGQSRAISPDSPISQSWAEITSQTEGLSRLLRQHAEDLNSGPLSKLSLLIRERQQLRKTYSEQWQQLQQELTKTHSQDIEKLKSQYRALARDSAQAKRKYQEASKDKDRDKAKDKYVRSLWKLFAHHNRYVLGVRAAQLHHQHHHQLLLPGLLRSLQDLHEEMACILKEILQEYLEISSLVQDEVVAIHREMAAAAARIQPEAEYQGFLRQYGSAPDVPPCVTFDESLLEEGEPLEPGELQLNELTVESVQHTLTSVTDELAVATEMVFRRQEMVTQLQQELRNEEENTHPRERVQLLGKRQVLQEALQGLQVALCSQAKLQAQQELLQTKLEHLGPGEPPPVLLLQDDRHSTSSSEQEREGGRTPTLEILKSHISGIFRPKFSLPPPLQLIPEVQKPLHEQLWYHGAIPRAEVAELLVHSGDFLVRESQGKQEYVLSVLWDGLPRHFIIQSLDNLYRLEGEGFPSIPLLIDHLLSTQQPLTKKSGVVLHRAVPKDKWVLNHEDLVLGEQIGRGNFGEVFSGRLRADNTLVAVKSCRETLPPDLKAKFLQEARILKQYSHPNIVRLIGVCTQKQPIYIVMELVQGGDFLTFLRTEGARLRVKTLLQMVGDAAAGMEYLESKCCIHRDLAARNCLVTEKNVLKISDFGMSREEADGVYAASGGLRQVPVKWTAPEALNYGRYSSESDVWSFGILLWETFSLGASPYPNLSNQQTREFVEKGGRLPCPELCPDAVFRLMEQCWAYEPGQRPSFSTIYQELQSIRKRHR
Chain of Hck (P08631 whole entry, looked up): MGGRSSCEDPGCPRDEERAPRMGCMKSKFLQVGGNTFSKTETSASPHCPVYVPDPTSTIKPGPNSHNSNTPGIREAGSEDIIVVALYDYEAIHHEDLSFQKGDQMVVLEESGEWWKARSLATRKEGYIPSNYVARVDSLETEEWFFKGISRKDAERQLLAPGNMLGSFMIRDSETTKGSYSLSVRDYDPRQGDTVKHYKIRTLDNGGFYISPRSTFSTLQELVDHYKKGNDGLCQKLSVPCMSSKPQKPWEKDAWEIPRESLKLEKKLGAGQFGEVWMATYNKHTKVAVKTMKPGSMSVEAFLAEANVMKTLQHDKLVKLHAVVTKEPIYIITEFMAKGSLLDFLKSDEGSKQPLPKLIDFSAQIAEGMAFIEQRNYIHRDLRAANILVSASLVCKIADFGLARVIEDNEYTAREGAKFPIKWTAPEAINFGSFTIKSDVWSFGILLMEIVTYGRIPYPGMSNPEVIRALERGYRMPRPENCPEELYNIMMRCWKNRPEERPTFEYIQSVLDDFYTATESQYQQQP

Row | Sequence | phosphorylation enrichment [1] | phosphorylation enrichment [2] | phosphorylation enrichment [3] | phosphorylation enrichment [4] | phosphorylation enrichment [5] | phosphorylation enrichment [6] | phosphorylation enrichment [7] | phosphorylation enrichment [8] | phosphorylation enrichment [9] | phosphorylation enrichment [10] | phosphorylation enrichment [11] | phosphorylation enrichment [12] | phosphorylation enrichment [13] | SH2 binding enrichment [14] | SH2 binding enrichment [15] | SH2 binding enrichment [16]
1 | DRLASDLDKVR [KRT10_Y160_Y160D] | 0.416 | 0.372 | 0.439 | 0.469 | 0.425 | 0.448 | 0.603 | 0.443 | 0.362 | 0.363 | 0.537 | 0.661 | 0.471 | 0.505 | 0.842 | 0.681
2 | DRLASYLDKVP [KRT14_Y129_R134P] | 0.499 | 0.537 | 0.456 | 0.689 | 0.5 | 0.481 | 0.802 | 0.621 | 0.495 | 0.493 | 0.883 | 0.912 | 0.472 | 0.521 | 1.04 | 0.797
3 | DSDTDYGSGYP [RNASEH2A_Y206_L202S] | 0.646 | 0.708 | 0.647 | 0.899 | 0.699 | 0.677 | 1.36 | 1.01 | 0.575 | 0.689 | 1.43 | 1.55 | 0.573 | 0.442 | 0.688 | 0.405
4 | DSGKLYALDGL [INO80_Y1104_V1108G] | 0.719 | 0.723 | 0.581 | 0.715 | 0.828 | 0.763 | 0.829 | 0.699 | 2.2 | 1.17 | 0.912 | 1.02 | 0.833 | 0.567 | 0.92 | 0.525
5 | DSLASYLDKVR [KRT10_Y160_R156S] | 0.416 | 0.491 | 0.5 | 0.558 | 0.469 | 0.448 | 0.701 | 0.629 | 0.46 | 0.46 | 0.682 | 0.78 | 0.4 | 0.579 | 0.867 | 0.772
6 | DSNPIYSQIWS [FCRL3_Y662] | 19.4 | 20.2 | 6.65 | 5.05 | 12 | 12.1 | 1.88 | 14.1 | 11.8 | 8.52 | 1.18 | 14.4 | 21.2 | 0.851 | 1.1 | 0.89
7 | DTCPPYVLSQG [GJB4_Y237] | 0.671 | 0.637 | 0.552 | 0.77 | 0.507 | 0.663 | 1.12 | 1.07 | 0.439 | 0.637 | 1.21 | 1.32 | 0.417 | 0.518 | 0.679 | 0.589
8 | DTCPPYVLSQV [GJB4_Y237_G242V] | 1.2 | 0.685 | 0.475 | 0.776 | 0.606 | 0.573 | 1.01 | 0.668 | 0.432 | 0.606 | 0.969 | 1.11 | 0.635 | 0.624 | 0.77 | 0.797
9 | DTKAFYPEEIS [HSPA1A_Y115_E110D] | 0.479 | 0.456 | 0.482 | 0.88 | 0.393 | 0.441 | 1.05 | 0.752 | 0.432 | 0.523 | 0.933 | 1.1 | 0.579 | 0.445 | 0.927 | 0.574
10 | DVCKKYAEAKD [ALB_Y343_N342K] | 0.546 | 0.72 | 0.627 | 0.821 | 0.659 | 0.639 | 1.24 | 0.775 | 0.402 | 0.53 | 0.897 | 1.23 | 0.646 | 0.562 | 0.757 | 0.431
11 | DVCKNYTEAKD [ALB_Y343_A344T] | 0.511 | 0.555 | 0.51 | 0.613 | 0.494 | 0.497 | 0.92 | 0.549 | 0.5 | 0.385 | 0.712 | 0.963 | 0.581 | 0.807 | 0.824 | 0.674
12 | DWWQEYVLNES [TGM1_Y267_R264W] | 0.678 | 0.831 | 1.61 | 0.97 | 0.515 | 0.563 | 2.11 | 0.777 | 0.403 | 4.1 | 1.55 | 1.51 | 0.817 | 0.63 | 0.993 | 0.588
13 | DYLEKYYKFGC [NNMT_Y24_S29C] | 0.563 | 0.824 | 0.855 | 1.14 | 0.539 | 0.588 | 1.44 | 1.04 | 0.541 | 0.78 | 1.25 | 1.28 | 0.802 | 0.581 | 0.611 | 0.53
14 | DYYDLYGGEKK [PTPN11_Y66_F71K] | 0.888 | 6.24 | 15.8 | 14.1 | 4.06 | 4.04 | 2.84 | 0.945 | 2.72 | 3.65 | 2.36 | 1.17 | 4.52 | 0.838 | 1.01 | 0.665
15 | EALDFYGEVKT [PTEN_Y155_R159K] | 0.78 | 0.719 | 0.53 | 0.823 | 1.15 | 1.2 | 1.19 | 0.844 | 0.409 | 1.21 | 1.6 | 1.56 | 0.722 | 0.471 | 0.813 | 0.757
16 | EERKTYVNTML [TEK_Y1102_T1106M] | 0.42 | 0.385 | 0.428 | 0.506 | 0.378 | 0.44 | 0.71 | 0.55 | 0.354 | 0.362 | 0.637 | 0.803 | 0.442 | 0.661 | 12.9 | 0.606
17 | EERNPYFSSAR [MCCC2_Y520_G517R_YF] | 0.36 | 0.466 | 0.486 | 0.404 | 0.659 | 0.475 | 0.769 | 0.624 | 0.407 | 1.08 | 0.779 | 0.752 | 0.392 | 0.446 | 0.859 | 0.789

Row | Sequence | phosphorylation enrichment [1] | phosphorylation enrichment [2] | phosphorylation enrichment [3] | phosphorylation enrichment [4] | phosphorylation enrichment [5] | phosphorylation enrichment [6] | phosphorylation enrichment [7] | phosphorylation enrichment [8] | phosphorylation enrichment [9] | phosphorylation enrichment [10] | phosphorylation enrichment [11] | phosphorylation enrichment [12] | phosphorylation enrichment [13] | SH2 binding enrichment [14] | SH2 binding enrichment [15] | SH2 binding enrichment [16]
18 | EHFSYYGMKAV [SLC15A2_Y61_R57H] | 0.607 | 0.887 | 8.11 | 6.68 | 3.42 | 1.71 | 1.01 | 0.634 | 2.35 | 3.38 | 9.46 | 0.765 | 0.818 | 0.951 | 0.923 | 0.816
19 | EITSHYRHLLR [ZBTB46_Y14] | 0.571 | 0.417 | 0.444 | 0.517 | 0.389 | 0.319 | 0.733 | 0.733 | 0.392 | 0.475 | 0.601 | 0.819 | 0.443 | 0.491 | 0.77 | 0.661
20 | EKIANYKEGTY [CLRN1_Y171] | 0.552 | 0.573 | 0.45 | 0.449 | 0.489 | 0.546 | 0.671 | 0.76 | 0.41 | 0.468 | 0.654 | 0.704 | 0.389 | 0.433 | 0.803 | 0.641
21 | EKLQKYFRKNP [EHHADH_Y682_Q685K_YF] | 0.514 | 0.693 | 0.473 | 0.553 | 0.646 | 0.527 | 0.613 | 0.763 | 0.567 | 0.613 | 0.991 | 0.895 | 0.615 | 0.549 | 0.914 | 0.802
22 | ELETLYKKAVK [CC2D2A_Y381] | 0.37 | 0.526 | 0.485 | 0.731 | 0.554 | 0.366 | 0.702 | 0.517 | 0.416 | 0.323 | 0.684 | 0.896 | 0.47 | 0.458 | 0.809 | 0.589
23 | ELTSVYGSRAR [SENP1_Y349_D350G] | 0.424 | 0.378 | 0.41 | 0.583 | 1.86 | 1.97 | 0.523 | 0.567 | 0.449 | 1.96 | 0.538 | 0.633 | 0.42 | 0.411 | 0.69 | 0.501
24 | EMTRNYIIFIE [BCO2_Y294_G289E] | 0.487 | 0.51 | 0.575 | 0.683 | 0.534 | 0.586 | 1.1 | 0.572 | 0.513 | 0.464 | 1.06 | 1.08 | 0.569 | 0.625 | 1.19 | 0.903
25 | ENAGFYFRVSA | 0.724 | 0.794 | 0.841 | 1.1 | 0.62 | 0.45 | 1.45 | 0.831 | 0.44 | 0.324 | 1.22 | 1.58 | 0.704 | 0.359 | 0.646 | 0.738
26 | ENAGYYFRISA | 0.523 | 0.797 | 0.527 | 0.852 | 0.534 | 0.488 | 1.51 | 0.764 | 0.369 | 0.356 | 1.36 | 1.48 | 0.781 | 0.6 | 0.661 | 0.776
27 | ENRLDYGSAWA [AR_Y395_P392R] | 0.352 | 0.359 | 0.353 | 0.503 | 0.311 | 0.498 | 0.773 | 0.501 | 0.364 | 0.435 | 0.824 | 1.25 | 0.453 | 0.499 | 0.955 | 0.735
28 | EPFKVYRIVPE [IRF8_Y110_YF] | 0.424 | 0.428 | 0.468 | 0.485 | 0.4 | 0.462 | 0.572 | 0.43 | 0.453 | 0.588 | 0.526 | 0.698 | 0.454 | 0.506 | 0.774 | 0.511
29 | EPVSDYINANI [PTPN11_Y304] | 0.412 | 0.433 | 0.454 | 0.673 | 0.541 | 0.447 | 0.997 | 0.603 | 0.325 | 0.38 | 0.799 | 0.847 | 0.495 | 0.466 | 0.819 | 0.911
30 | EQLRAYLEGEC [HLA-C_Y183_T187E] | 0.537 | 0.775 | 0.514 | 0.949 | 0.533 | 0.548 | 1.3 | 1.15 | 0.51 | 0.465 | 1.14 | 1.25 | 0.623 | 0.502 | 0.783 | 0.664
31 | EQLRAYLEGLC [HLA-C_Y183_T187L] | 0.607 | 0.653 | 0.512 | 0.843 | 0.73 | 0.482 | 1.34 | 1.13 | 0.615 | 0.618 | 1.45 | 1.58 | 0.673 | 0.449 | 0.704 | 0.66
32 | ERLWVYGMSSS [F8_Y1728_D1727V] | 0.539 | 0.669 | 0.529 | 0.729 | 0.574 | 0.565 | 1.17 | 0.691 | 0.395 | 0.556 | 1.18 | 1.61 | 0.612 | 0.639 | 0.872 | 0.688
33 | ERPGVYTNVVE [F11_Y608] | 0.413 | 0.417 | 0.438 | 0.538 | 0.463 | 0.481 | 0.66 | 0.513 | 0.383 | 0.442 | 0.519 | 0.62 | 0.423 | 6.19 | 4.93 | 0.979
